Assay results published in the supplement of paper PMC10126150.
± gives the standard deviation of the averaged measurements.

Tested on: ATP
Assay: switch fluorescence ratio, 500 uM ATP over buffer (Cy3 cluster intensity, sum of 5 cycles each) (fold (ratio)); higher = stronger signal-on switching upon ATP binding; sequences stand for … in TCGTCGGCAGCGTCAGATGTGTATAAGAGACAGTTTTTTTTTTTTTTTTTTTTTTTTT…TC
Conditions: aptamer strand: ATP DNA aptamer (quencher-CACCTGGGGGAGTATTGCGGAGGAAGG + anchor), 100 nM annealed; ATP concentration: 500 uM
How it was run: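 Cy3-labelled switching-strand clusters on a modified Illumina MiSeq flow-cell were annealed to 100 nM quencher-labelled ATP aptamer and imaged first in selection buffer, then after 15 min with 500 uM ATP at 22 °C. NaOH stripping and re-annealing separated each of five buffer/ATP cycles, and clusters outside 100-1000 RFU were excluded. The fluorescence ratio sums target-cycle Cy3 intensity over buffer-cycle Cy3 intensity per cluster and averages it per switch-domain sequence.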
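Further: ATP exposure 15 min at 22 °C before imaging.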

| Sequence | switch fluorescence ratio |
| --- | --- |
| TTTGGGTAAT | 1.21 ± 0.39 |
| TTTGGGTGAG | 0.993 ± 0.023 |
| TTTGGGTGAT | 1.02 ± 0.022 |
| TTTGGGTTTT | 1.01 ± 0.054 |
| TTTGGTAAAA | 1.01 ± 0.037 |
| TTTGGTAAGC | 1.02 ± 0.036 |
| TTTGGTACCC | 1.01 ± 0.029 |
| TTTGGTCAGA | 0.973 ± 0.049 |
| TTTGGTCGGA | 1.019 ± 0.0039 |
| TTTGGTCGGT | 0.986 ± 0.081 |
| TTTGGTCTTT | 1 ± 0.02 |
| TTTGGTGATA | 0.943 ± 0.01 |
| TTTGGTGGGG | 1.01 ± 0.029 |
| TTTGGTGTGC | 1.01 ± 0.022 |
| TTTGGTGTTA | 1 ± 0.026 |
| TTTGGTTAGC | 1.01 ± 0.02 |
| TTTGGTTAGG | 0.985 ± 0.019 |
| TTTGGTTATT | 1 ± 0.04 |
| TTTGGTTGCT | 0.991 ± 0.028 |
| TTTGGTTTAG | 1 ± 0.015 |
| TTTGGTTTTA | 1.004 ± 0.0077 |
| TTTGTAAAGT | 0.976 ± 0.019 |
| TTTGTAAGGC | 1.08 ± 0.13 |
| TTTGTAGGCG | 0.983 ± 0.13 |
| TTTGTATAAC | 1.01 ± 0.012 |
| TTTGTATTCC | 0.991 ± 0.1 |

| Sequence | switch fluorescence ratio |
| --- | --- |
| TTTGTCAAAA | 1 ± 0.025 |
| TTTGTCAGTT | 0.956 ± 0.043 |
| TTTGTCATGT | 0.976 ± 0.036 |
| TTTGTCCGGT | 0.971 ± 0.018 |
| TTTGTGCAGG | 1.04 ± 0.046 |
| TTTGTGCCGG | 1.012 ± 0.007 |
| TTTGTGGAGC | 1.04 ± 0.071 |
| TTTGTGGAGG | 0.999 ± 0.023 |
| TTTGTGGGAC | 1.11 ± 0.066 |
| TTTGTGGGGA | 1 ± 0.026 |
| TTTGTGGGTT | 0.997 ± 0.025 |
| TTTGTGTAGT | 0.986 ± 0.065 |
| TTTGTGTCAC | 0.984 ± 0.034 |
| TTTGTGTCTT | 0.967 ± 0.024 |
| TTTGTGTGGC | 0.99 ± 0.084 |
| TTTGTTAAGG | 1.01 ± 0.019 |
| TTTGTTAAGT | 1.01 ± 0.05 |
| TTTGTTAATT | 0.996 ± 0.039 |
| TTTGTTAGC | 1.03 ± 0.019 |
| TTTGTTATGC | 1.03 ± 0.032 |
| TTTGTTGAC | 0.998 ± 0.024 |
| TTTGTTGGAA | 0.99 ± 0.025 |
| TTTGTTGGCT | 0.972 ± 0.058 |
| TTTGTTGGGG | 1.02 ± 0.011 |
| TTTGTTGTAT | 1 ± 0.032 |
| TTTGTTGTTA | 0.994 ± 0.031 |

| Sequence | switch fluorescence ratio |
| --- | --- |
| TTTGTTTACT | 0.99165 ± 0.00046 |
| TTTGTTTCAA | 0.982 ± 0.013 |
| TTTGTTTCAT | 1.04 ± 0.1 |
| TTTGTTTCGT | 1.03 ± 0.11 |
| TTTGTTTGGG | 0.998 ± 0.033 |
| TTTGTTTTCG | 1.02 ± 0.041 |
| TTTGTTTTGC | 0.971 ± 0.019 |
| TTTGTTTTGG | 1.03 ± 0.025 |
| TTTTAAAAGG | 0.99 ± 0.037 |
| TTTTAAACCG | 1.05 ± 0.17 |
| TTTTAAACTT | 1.09 ± 0.15 |
| TTTTAACCTG | 1.01 ± 0.046 |
| TTTTAACGGG | 0.998 ± 0.027 |
| TTTTAACTTC | 1 ± 0.014 |
| TTTTAAGAGA | 1.01 ± 0.017 |
| TTTTAAGCTA | 1.12 ± 0.2 |
| TTTTAAGGG | 1.02 ± 0.022 |
| TTTTAAGTGA | 1.02 ± 0.05 |
| TTTTAATACC | 1 ± 0.023 |
| TTTTAATAGT | 1.01 ± 0.018 |
| TTTTAATCCC | 1.07 ± 0.062 |
| TTTTAATCGA | 1.02 ± 0.043 |
| TTTTAATGAG | 0.9774 ± 0.00031 |
| TTTTAATGTT | 1 ± 0.046 |
| TTTTAATTAG | 1.01 ± 0.018 |
